Assay results reported in the supplement of paper PMC7877785.
± gives the uncertainty stated by the source.

Test: self-splicing fitness, log relative to wild type (ln ratio); higher = more splicing; Tetrahymena group I intron in knt gene, E. coli kanamycin selection, DiMSum; sequences stand for … in CUCUCU…GGAGGGAAAAGUUAUCAGGCAUGCACCUGGUAGCUAGUCUUUAAACCAAUAGAUUGCAUCGGUUUAAAAGGCAAGACCGUCAAAUUGCGGGAAAGGGGUCAACAGCCGUUCAGUACCAAGUCUCAGGGGAAACUUUGAGAUGGCCUUGCAAAGGGUAUGGUAAUAAGCUGACGGACAUGGUCCUAACCACGCAGCCAAGUCCUAAGUCAACAGAUCUUCUGUUGAUAUGGAUGCAGUUCACAGACUAAAUGUCGGUCGGGGAAGAUGUAUUCUUCUCAUAAGAUAUAGUCGGACCUCUCCUUAAUGGGAGCUAGCGGAUGAAGUGAUGCAACACUGGAGCCGCUGGGAACUAAUUUGUAUGCGAAAGUAUAUUGAUUAGUUUUGGAGUACUCGUGGUCG
In short: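 DiMSum derived fitness as the error-weighted combination of fold changes across replicates, kanamycin versus no kanamycin, normalised to wild type. E. coli BL21(DE3) held the library, which randomised all eight P1ex-region intron nucleotides within the knt kanamycin-resistance gene on pET-22b(+). Six replicate transformations grew overnight at 37°C or 30°C on LB agar with or without 25 μg/mL kanamycin, also containing 100 μg/mL carbenicillin, 50 μM IPTG and 0.2% rhamnose, and pooled colonies were amplicon-sequenced on an Illumina HiSeq 2500.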

Sequence | self-splicing fitness (ln) (30 °C) | self-splicing fitness (ln) (37 °C)
GGUUAGCAAUAUUACGAUUC | -0.602 ± 0.11 | -0.718 ± 0.17
GCUAAGCAAUAUUACGGGUC | -2.55 ± 0.17 | -1.89 ± 0.15
UAAGAGCAAUAUUACGCUGA | – | -1.15 ± 0.29
UGCUAGCAAUAUUACGGAGG | -2.23 ± 0.14 | -1.13 ± 0.13
GCUAAGCAAUAUUACGUUGU | -2.7 ± 0.11 | -2.43 ± 0.13
GCAUAGCAAUAUUACGGAUG | -3.15 ± 0.15 | -0.657 ± 0.13
ACAAAGCAAUAUUACGAGAG | -2.93 ± 0.16 | -1.1 ± 0.1
GCCCAGCAAUAUUACGUAAC | -0.899 ± 0.074 | -0.153 ± 0.1
UACAAGCAAUAUUACGCAUA | -2.07 ± 0.11 | -0.871 ± 0.11
UCGGAGCAAUAUUACGGGGU | -3.57 ± 0.29 | –
UACCAGCAAUAUUACGGCCA | -0.369 ± 0.073 | -0.0799 ± 0.097
UGGGAGCAAUAUUACGGUAA | -2.32 ± 0.45 | –
AUUAAGCAAUAUUACGCGCU | -0.542 ± 0.11 | -0.561 ± 0.15
GUAUAGCAAUAUUACGUCCA | -1.58 ± 0.26 | -0.506 ± 0.23
UAGUAGCAAUAUUACGCCUU | -2.11 ± 0.12 | -0.556 ± 0.11
CUUAAGCAAUAUUACGGCUG | -1.38 ± 0.13 | -1.07 ± 0.17
GUACAGCAAUAUUACGCUUA | -1.58 ± 0.08 | -1.03 ± 0.091
ACUAAGCAAUAUUACGUACA | -1.55 ± 0.086 | -1.14 ± 0.087
GAAGAGCAAUAUUACGUUCC | -4.33 ± 0.28 | -2.04 ± 0.31
AACGAGCAAUAUUACGACAC | – | -1.46 ± 0.32

Sequence | self-splicing fitness (ln) (30 °C) | self-splicing fitness (ln) (37 °C)
GUUGAGCAAUAUUACGGGAC | -2.69 ± 0.34 | -1.49 ± 0.35
GCAUAGCAAUAUUACGGAAA | -1.6 ± 0.31 | -1.88 ± 0.25
AGCGAGCAAUAUUACGGUCG | -2.52 ± 0.12 | -1.86 ± 0.13
UGCUAGCAAUAUUACGAGGC | -2.55 ± 0.19 | -1.89 ± 0.34
AAUAAGCAAUAUUACGUCAC | -3.19 ± 0.17 | -3.17 ± 0.21
UGGAAGCAAUAUUACGCGUA | -1.21 ± 0.11 | -0.131 ± 0.15
CGAGAGCAAUAUUACGAUCU | -2.45 ± 0.42 | –
CCCCAGCAAUAUUACGAACU | -5.09 ± 0.45 | -2.29 ± 0.2
AACCAGCAAUAUUACGUACC | -0.685 ± 0.08 | 0.0338 ± 0.11
UCGUAGCAAUAUUACGUCGA | -2.49 ± 0.17 | -1.91 ± 0.15
UUGUAGCAAUAUUACGGCGC | – | -2.34 ± 0.2
CCAUAGCAAUAUUACGACCG | -0.0743 ± 0.15 | -0.0737 ± 0.22
GCUAAGCAAUAUUACGACUG | -0.97 ± 0.1 | -0.946 ± 0.14
UCGCAGCAAUAUUACGAGCU | -3.14 ± 0.39 | -2.22 ± 0.26
GGCUAGCAAUAUUACGCAAU | -0.887 ± 0.14 | -0.69 ± 0.16
GAUUAGCAAUAUUACGAAUU | -2.56 ± 0.3 | -2.95 ± 0.47
UAACAGCAAUAUUACGAAGU | -3.97 ± 0.17 | -3.18 ± 0.16
GCAGAGCAAUAUUACGUCCU | -3.22 ± 0.42 | -0.41 ± 0.27
AUCGAGCAAUAUUACGAGUA | -3.25 ± 0.41 | -1.58 ± 0.28
CGGUAGCAAUAUUACGGUAC | – | -1.22 ± 0.42
